From US7452965
Bridge positions count the residues as written; N and C are the ends. Ends that are not written are not given here.

Key:
[1] = molecular target: HT29 protein (unidentified protease-sensitive cell surface protein on HT29 colon carcinoma cells that the RPM peptide binds); experiment: competition with RPM displaying phage on HT29 cells, real time PCR
[2] = molecular target: HT29 protein (unidentified protease-sensitive cell surface protein on HT29 colon carcinoma cells that the RPM peptide binds); experiment: competition of synthetic peptide with RPM phage on HT29 cells, real time PCR; percent of phage bound without competitor
[3] = molecular target: HT29 protein (unidentified protease-sensitive cell surface protein on HT29 colon carcinoma cells that the RPM peptide binds); experiment: competition with RPM phage on HT29 cells, real time PCR
[4] = molecular target: HT29 protein (unidentified protease-sensitive cell surface protein on HT29 colon carcinoma cells that the RPM peptide binds); experiment: competition of non-specific peptide with RPM phage on HT29 cells, real time PCR; 100% means no competition

Row | EC50 [1] | fold shift of the EC50 of competition against the RPM peptide [1] | Binder | also measured
1 | 690 µM | 100 fold | CPIEDAPMC [APM peptide (RPM peptide with the arginine mutated to alanine)] | 
2 | 5 µM |  | CPIEDRPMC (disulfide 1-9 (inferred)) [RPM peptide … (SEQ ID NO: 134), synthetic, oxidized to form a disulfide bond] | percent of RPM phage binding remaining [2]: < 4%
3 | 545 µM | 100 fold | CPIEDRPAC [RPA peptide (RPM peptide with the methionine mutated to alanine)] | 
4 |  |  | CPIRPMEDC [RPM middle peptide … (SEQ ID NO: 137)] | fold less potent than RPM in competition [3]: > 100 fold
5 |  |  | CKHLGPQLC (disulfide 1-9 (inferred)) [non-specific peptide … (SEQ ID NO: 135), synthetic, oxidized to form a disulfide bond] | percent of RPM phage binding remaining [4]: 100%
